Data as given in the supplement of paper PMC7125110.
± gives the standard error. Variants at the floor of the assay were thinned out.

B1: glmS ribozyme (parent)
chain: AUAAAAGCGCCAGAACUACAGAAAUGUAGUUGACGAGGAGGAGGUUUAUCGAAUUUUCGGCGGAUGCCUCCAAA

Variants of: B1
Assay: self-cleavage kobs at 2500 uM GlcN6P; higher = faster cleavage; RNA array
Conditions: with glucosamine-6-phosphate
Outline: (§1)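 Barcoded ribozyme variants were transcribed in situ on sequenced MiSeq chips by E. coli RNA polymerase. At 37 °C, a hybridised Cy3 probe tracked them while glucosamine-6-phosphate (40 μM to 10 mM) in HEPES/KCl/Mg(OAc)2 buffer flowed in and tiles were imaged over ~14 h. Per-tile medians of signals normalised to baseline and to non-cleaving reference variants were fit to one- or two-exponential decays, giving kobs. kcat and KM came from weighted Michaelis–Menten fits across concentrations.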

Row | Variant | self-cleavage kobs at 2500 uM GlcN6P
1 | AUAAAAGCGCCAGAUUUACAGAAAUGUAGUUGUCGAGGAGGUGGUUUAUCGAAUUUGCGGCCGUUGCCUCCAAA | < 1e-05 s⁻¹
2 | AUAAAAGCGCCAGAACUACAGAAAUGUAGUUGACGAGGAGGAGGGUAAUCGAAUUUUCGGCGGAUGCCUCCAAA | 0.00816 ± 0.0022 s⁻¹
3 | AUAAAAGCGCCAGAAGUACAGAAAUGUAGUUGACGAGAAGGAGGUUCAUCGAAUUUUCGGCAGAUGCCUCCAAA | < 1e-05 s⁻¹
4 | AUAAAAGCGCCAGAACUACAGAAAUGUAGUUGAUGAGGAGGAGUUUUAACGAAUUUUCGGCGGAUGCCUCCAAA | < 1e-05 s⁻¹
5 | AUAAAAGCGCCAGAACUACAGAAAUGUAGUUGACGAGGAGGAGAUUUACCGAAUUUUCGGCGGAUGCCUCCAAA | < 1e-05 s⁻¹
6 | AUAAAAGCGCCAGAACUACAGAAAUGUAGUUUACGAGGAUGAGGAUUAUCGAAUUUUCGGCGGAUGCCUCCAAA | 4.53e-05 ± 1.3e-05 s⁻¹
7 | AUAAAAGCGCUAGAACUACAGAAAUGUAAUUGACGAGGAGGAGGUUUAUCGAAUUUUCGGCGGAUGCCUACAAA | 0.000404 ± 0.00014 s⁻¹
8 | AUAAAAGCGCCACAACUACAGAAAUGUAGUAGACGAGGAGGAGGUUUAUCGAAUUUUCGGCGGGUGCCUCCAAA | 9.93e-05 ± 3e-05 s⁻¹
9 | AUAAAAGCGCCAGAACUACAGAAAUGUAGUUGACGAGGAGGAGGUAUAACGAAUUUUCGGCGCAUGGCUCCAAA | < 1e-05 s⁻¹
10 | AUAAAAGCGCUAGAACUACAGAAAUGUAAGUGACGAGGAGGAGGUUUAUCGAAUAUUCGGCGCGUGCCUCCAAA | < 1e-05 s⁻¹
11 | AUAAAAACGCCAGAACUACAGAAAUGUAGUUGACGAGGAGGAGGUUUAUCGAUUUUUCAGCGGAUGCCUUCAAA | < 1e-05 s⁻¹
12 | AUAAAAGCGCCUGAACUACAGAAAUGUAGUUGACGAGGAGGAGUUUUAUCGAAUUUUCGGCGGAUGCCUUCAAA | 5.27e-05 ± 1.8e-05 s⁻¹
13 | AUAAAAGCGCCAGAACUACAGAAAUGUAGUUGGCGAGGAGGAGGUUAAUCGAGUUUUCGGCGGAUGCCUUCAAA | < 1e-05 s⁻¹
14 | AUAAAAGCGCCAGAACUACAGAAAUGUAGUUUACGACGAGGCGGUUUAUCGAAUUUUCGGCGGAUGCCUCCAAA | < 1e-05 s⁻¹
15 | AUAAAAGCGUCAGAACUACAGAAAUGUAGUGGACGAGGAGGCGGUUUAUCGAAUUUUCGGCGGAUGCCUCCAAA | < 1e-05 s⁻¹
16 | AUAAAAGCGCCAGAACUACAGAAAUGUAGUUGACGAGACGGAGGUUUAUGGAAUUUUCGGCGGAUGCAUCCAAA | 5.88e-05 ± 2.8e-05 s⁻¹
17 | AUAAAAGCGCCAGAACUACAGAAAUGUAGUUGACGAGGAGGAGGUUUAUUGAAUUUUCAGCGGAUGCCUGUAAA | 5.06e-05 ± 1.7e-05 s⁻¹

Row | Variant | self-cleavage kobs at 2500 uM GlcN6P
18 | AUAAAAGCGCCAGAUCUACAGAAAUGUACUUGACGAGGAUGAGGUUUAUCGAAUUUUCGGCGGAUGCCUCCAAA | 3.13e-05 ± 1.2e-05 s⁻¹
19 | AUAAAAGCGCCAGCGCUACAGAAAUGUAGUUGACGAGGAGGAGGUCUAUCGAAUUUUCGGGGGAUGCCUCCAAA | < 1e-05 s⁻¹
20 | AUAAAAGCGCCAGAACUACAGAAAUGUAGUUGGCGAGGAGGAGGGUGAUCGAAUUUUCGGCGGAUGCCUCCAAA | < 1e-05 s⁻¹
21 | AUAAAAGCGCCAGAAAUACAGAAAUGUAGUUGACGUGGAGGAGGUUUAUCGAAUUUUCGGCGGAUGCGUCCAAA | 0.000692 ± 0.0002 s⁻¹
22 | AUAAACGCGCCAAAACUACAGAAAUGUAGUUGACGAGUAGGAGGUUUAUCGAAUUUGCGGCGGUUGCCUCCAAA | < 1e-05 s⁻¹
23 | AUAAAAGCGCCAGAACUACAGAAAUGUAGUUGACGAGGAGGAGGUUUAUCGAAUUUUCGGCCGGUGCCUACAAA | < 1e-05 s⁻¹
24 | AUAAAAGCGCGAGAACUACAGAAAUGUACUUGACGAUGAGGAGGUUUAUCGCAUUUUCGGCGGAUGCCUCCAAA | < 1e-05 s⁻¹
25 | AUAAAAGCGCCAGAGCUACAGAAAUGUAGUUGACGAGGAGGAGGCUUAUCGAAUUUUCGGCGGAGGUCUCCAAA | 0.000125 ± 3.7e-05 s⁻¹
26 | AUAAAAGCGCCAGUACUACAGAAAUGUAGUUGACGAGGAGGACGUUUAUCGAAUUUUCGGCGGAUGCUUCCAAA | 5.22e-05 ± 1.6e-05 s⁻¹
27 | AUAAAAGCGCCAAAACUACAGAAAUGUAGUUGACGAGGAGGAGGUUUAUCGUACUUUCGGCGGAUGCCUCCAAA | < 1e-05 s⁻¹
28 | AUAAAAGCGCCAGAACUACAGAAAUGUAGUUGACGAGGAUGAGGUCUAUCGAAUUUUCGGCGGGUGCCUCCAAA | 9.83e-05 ± 2.4e-05 s⁻¹
29 | AUAAAAUCGCCAGAACUACAGAAAUGUAGUUGACGUGGAGGAGGUUUAUCGAAUUUUCGGCGGAUGCUUCCAAA | < 1e-05 s⁻¹
30 | AUAAAAGCGCCAGAACUACAGAAAUGUAGUUGAUGAGGAGGAGGUUUAUGGAAUUUUCGGCGGAUGCAACCAAA | 0.000141 ± 4.9e-05 s⁻¹
31 | AUAAAAGCGCCAGAACUACAGAAAUGUAGUUGCCGAAGAGGAGGUUUAUCGAAUUUUCGCCGGAUGCCUCCAAA | < 1e-05 s⁻¹
32 | AUAAAAGCGCCUGAACUACAGAAAUGUAGUUGACGAGGAGUGGGUUUAUCCAAUUUUCGGCGGAUGCCUCCAAA | < 1e-05 s⁻¹
33 | AUAAAAGCGCCAGAACUACAGAAAUGUAGUUGACGAGGAUGAUGUUUAUCGAAAUUUCGGCGGAUGCCUCCAAA | < 1e-05 s⁻¹
34 | AUAAAAGCGCCAGAAAUACAGAAAUGUAGUUGACGAGGAGGAGGUUUAUCGAAUUUUCGGCGGAUACCUCGAAA | 5.24e-05 ± 2.5e-05 s⁻¹

Variants of: B1
Assay: self-cleavage kobs at 10000 uM GlcN6P; higher = faster cleavage; RNA array
Conditions: with glucosamine-6-phosphate
Outline: as §1

Row | Variant | self-cleavage kobs at 10000 uM GlcN6P
35 | AUAAAAGCGCUAGAACUACAGAAAUGUAAUUGACGAGGAGGAGGUUUAUCGAAUUUUCGGCGGAUGCCUACAAA | 5.6e-05 ± 1.8e-05 s⁻¹
36 | AUAAAAGCGCCUGAACUACAGAAAUGUAGUUGACGAGGAGUGGGUUUAUCCAAUUUUCGGCGGAUGCCUCCAAA | < 1e-05 s⁻¹
37 | AUAAAAGCGCCAGAACUACAGAAAUGUAGUUGACGAGGAUGAUGUUUAUCGAAAUUUCGGCGGAUGCCUCCAAA | < 1e-05 s⁻¹
